Values of other authors as cited in paper PMC5009806.

Target: amyloid beta (Homo sapiens) (UniProt P05067)
Assay: SPR

For Gantenerumab, the Kd is listed as 0.6 nM.
